# In publication PMC8529273:
# Target: human ACE-2, Fc-tagged (human) (UniProt Q9BYF1)
# Assay: BLI
Substance,Kd,koff,kon
SARS-CoV-2 B.1.351 RBD (K417N_E484K_N501Y) (domain or fragment),7.81 nM,–,–
SARS-CoV-2 P.1 RBD (K417T_E484K_N501Y) (domain or fragment),5.64 nM,–,–
SARS-CoV-2 RBD E484K (domain or fragment),15.6 nM,0.00677 s⁻¹,433000 M⁻¹ s⁻¹
SARS-CoV-2 RBD K417N (domain or fragment),77 nM,0.0162 s⁻¹,–
SARS-CoV-2 RBD K417T (domain or fragment),56.7 nM,0.0129 s⁻¹,–
SARS-CoV-2 receptor-binding domain (RBD) wild type (Wuhan strain) (domain or fragment),23.9 nM,0.00755 s⁻¹,315000 M⁻¹ s⁻¹
